B1: GAGE1 (parent)
chain: QPPEMIGPMRPEQFSDEVEPATPE

Variants of: B1
Experiment: protein stability index of a GFP-peptide fusion (GPS, HEK-293T) (PSI 1-6); higher = more stable
Details: c terminus: a fixed tail appended
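Also: lentivirally expressed fusions sorted by FACS into six bins by GFP to DsRed ratio, PSI derived from sequencing read proportions per bin multiplied by bin number.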

Protein stability index of substitutions, site by site:
P23: A 5.02 | G 5.2 | C 4.57 | E 4.81 | F 4.69 | N 5.26 | D 5.28 | Q 5.16 | V 4.5 | I 4.72 | W 4.41 | T 4.81 | L 4.9 | K 5.1 | H 5 | S 5.14 | Y 4.4 | M 5.05 | R 5.3
F14: R 5.72 | Q 5.56 | G 5.68 | A 5.4 | P 5.84 | V 5.48 | E 5.49 | T 5.81 | M 5.57 | H 5.46 | L 5.61 | Y 4.75 | I 5.28 | W 5.65 | C 5.29 | K 4.13 | N 5.87 | S 5.97 | D 5.8
P8: K 5.46 | Q 5.76 | H 5.47 | S 5.54 | N 5.91 | C 5.48 | T 5.62 | E 5.86 | G 5.45 | I 5.09 | A 5.5 | D 5.1 | L 5.52 | M 4.75 | F 4.9 | Y 4.92 | R 5.24 | V 5.67
I6: V 5.79 | T 5.72 | W 5.83 | Y 5.65
M9: G 5.5 | S 5.72 | K 5.81 | N 4.68 | V 5.97 | H 5.9 | A 5.28 | F 5.54 | C 5.7 | T 5.68 | P 5.57 | Q 5.49 | R 5.86 | D 5.82 | W 5.9 | L 5.31 | E 5.62 | Y 5.5 | I 5.13
T22: C 4.97 | A 4.6 | R 4.61 | Q 5.2 | I 4.66 | L 4.79 | V 4.8 | F 4.46 | K 4.96 | D 5.43 | H 4.89 | Y 4.84 | N 4.56 | M 4.79 | G 5.15 | P 5.08 | E 5.2 | W 4.35
P20: K 4.79 | N 4.75 | A 4.44 | F 4.98 | L 5.27 | Q 5.21 | E 4.92 | C 4.84 | G 5.36 | Y 5.13 | R 5 | T 4.91 | D 5.25 | M 4.65 | H 5.46 | I 4.96 | S 5.18 | W 3.7
G7: H 5.48 | F 5.83 | M 5.55 | R 5.68 | I 5.14 | Q 5.69 | T 5.46 | N 5.91 | P 5.56 | D 5.22 | W 5.73 | C 5.63 | S 5.68 | K 5.54 | A 5.38 | V 5.68 | Y 5.76 | L 5.44 | E 5.69
E17: K 5.12 | Y 4.05 | G 5.16 | A 5.08 | N 5.01 | F 4.86 | R 5.34 | T 5.08 | C 4.91 | D 4.85 | Q 5.42 | I 4.89 | L 5.04 | W 4.85 | M 5.16 | H 5.56 | P 4.73 | V 4.96 | S 5.44
S15: K 5.72 | C 5.31 | H 4.75 | M 4.22 | N 5.32 | F 3.19 | V 4.73 | G 4.48 | A 4.71 | E 5.49 | P 4.67 | W 4.8 | R 5.37 | Y 4.59 | I 5.08 | D 4.57 | T 5.27 | L 4.79
E24: A 4.99 | F 4.83 | N 5.18 | G 4.67 | L 4.09 | K 4.68 | D 4.51 | H 4.62 | I 4.56 | C 4.6 | M 4.37
R10: S 5.56 | T 4.38 | G 4.82 | F 5.47 | I 5.24 | Q 4.4 | C 5.51 | A 5.17 | H 5.2 | Y 5.24 | E 5 | W 5.34 | K 4.93 | M 5.12 | V 4.98 | P 5.78 | N 5.28 | D 3.42 | L 4.37
Q13: D 4.11 | K 5.34 | N 5.33 | A 5.12 | V 5.62 | W 5.36 | P 5.91 | Y 5.5 | T 5.84 | C 5.59 | I 5.6 | G 5.78 | S 5.46 | M 4.96 | F 5.02 | R 5.58 | L 5.64 | E 4.65 | H 5.45
D16: E 3.25 | C 4.96 | Q 5.6 | K 5.51 | A 5.69 | N 5.38 | W 5.24 | S 5.31 | T 5.46 | M 5.32 | P 5.66 | L 5.32 | R 5.33 | F 5.74 | G 4.98 | V 5.54 | I 5.39 | H 5.57 | Y 5.43
E12: I 5.69 | F 5.87 | G 5.01 | W 4.88 | Y 5.51 | K 5.15 | P 5.73 | L 5.8 | N 5.46 | R 5.71 | A 5.33 | H 5.21 | D 4.57 | M 5.15 | Q 5.57 | S 5.5 | T 5.58 | C 5.27 | V 5.83
V18: K 5.12 | T 4.79 | Y 4.22 | W 5.04 | F 5.13 | C 4.78 | R 4.85 | L 4.59 | I 4.91 | S 5.44 | M 4.75 | G 4.72 | A 5.25 | D 4.79 | N 5.32 | E 4.96 | Q 5.35 | P 4.85 | H 5.26
P11: S 5.6 | F 5.5 | R 5.55 | M 4.9 | Q 5.34 | N 5.44 | W 5.39 | T 5.61 | I 4.87 | L 5.37 | A 5.35 | K 5.63 | G 5.65 | V 5.7 | C 5.5 | E 5.69 | Y 5.43 | D 5.69 | H 5.82
A21: V 5.34 | W 4.7 | F 5.05 | Q 4.79 | I 4.87 | H 4.66 | G 4.98 | L 4.9 | T 4.83 | M 5.17 | Y 4.08 | K 5.32 | N 4.29 | P 4.6 | D 5.12 | S 4.79 | R 5 | C 4.59 | E 5.21
E19: K 4.42 | A 5.03 | P 4.43 | F 4.95 | S 5.18 | Q 5.33 | M 4.83 | T 5.17 | H 5.04 | I 5.05 | Y 4.65 | L 4.04 | R 3.98 | D 5.25 | G 4.86 | C 4.62 | W 4.75 | N 5.06 | V 4.09
